Results on one protein are retold here after patent US4251628A, “Substrates for angiotensin converting enzyme” (priority 1978, dated 1981).

Substrate in the data set: O=C(O)CNC(=O)CNC(=O)CNC(=O)c1ccccc1
Nature of the data set: ACE assay: hydrolysis of ^3H-HipGlyGly by human serum, Lineweaver-Burke Km. The note with it: other: human serum, pH 8.0, 37° C., 60 min. It is filed as biochemical. Here is the method: The following sample illustrates the preferred assay method, the sensitivity of the assay and the Km for ^3 H-HipGlyGly. The reaction buffer contains 0.05 M Hepes, 0.1 M sodium chloride and 0.6 M sodium sulphate at pH 8.0. (Pepes is N-2-Hydroxyethyl piperazine N'-2-ethane sulfonic acid.) The substrate, ^3 H-HipGlyGly was dissolved in reaction buffer at a concentration of 16 mM and a specific radioactivity of about 0.15 millicuries/millimole. Serum was prepared from fresh whole blood by standard techniques. […] Hemolyzed samples were not used in the assay. Serum samples could be stored at least for one week at 2° C. to 8° C. or for at least 8 weeks frozen, prior to assaying. For the assay, 50 μl. of serum was diluted with 200 μl. of reaction buffer. […]
A control determination of background radioactivity was made using 50 μl. of reaction buffer instead of diluted serum in the reaction mixture. […] Total radioactivity was determined by counting an amount of substrate equal to that used in the reaction mixture directly in the scintillation counter.
Reaction velocity, in terms of nanomoles of product formed per minute per ml of serum was calculated according to the following formula: [formula] In this formula, "nmoles" means nanomoles, "min" means minutes, "ml" means milliliters and "cpm" means radioactivity counts per minute. […]

B1: angiotensin converting enzyme (ACE) (Homo sapiens) (protein)
chain: LDPGLQPGNFSADEAGAQLFAQSYNSSAEQVLFQSVAASWAHDTNITAENARRQEEAALLSQEFAEAWGQKAKELYEPIWQNFTDPQLRRIIGAVRTLGSANLPLAKRQQYNALLSNMSRIYSTAKVCLPNKTATCWSLDPDLTNILASSRSYAMLLFAWEGWHNAAGIPLKPLYEDFTALSNEAYKQDGFTDTGAYWRSWYNSPTFEDDLEHLYQQLEPLYLNLHAFVRRALHRRYGDRYINLRGPIPAHLLGDMWAQSWENIYDMVVPFPDKPNLDVTSTMLQQGWNATHMFRVAEEFFTSLELSPMPPEFWEGSMLEKPADGREVVCHASAWDFYNRKDFRIKQCTRVTMDQLSTVHHEMGHIQYYLQYKDLPVSLRRGANPGFHEAIGDVLALSVSTPEHLHKIGLLDRVTNDTESDINYLLKMALEKIAFLPFGYLVDQWRWGVFSGRTPPSRYNFDWWYLRTKYQGICPPVTRNETHFDAGAKFHVPNVTPYIRYFVSFVLQFQFHEALCKEAGYEGPLHQCDIYRSTKAGAKLRKVLQAGSSRPWQEVLKDMVGLDALDAQPLLKYFQPVTQWLQEQNQQNGEVLGWPEYQWHPPLPDNYPEGIDLVTDEAEASKFVEEYDRTSQVVWNEYAEANWNYNTNITTETSKILLQKNMQIANHTLKYGTQARKFDVNQLQNTTIKRIIKKVQDLERAALPAQELEEYNKILLDMETTYSVATVCHPNGSCLQLEPDLTNVMATSRKYEDLLWAWEGWRDKAGRAILQFYPKYVELINQAARLNGYVDAGDSWRSMYETPSLEQDLERLFQELQPLYLNLHAYVRRALHRHYGAQHINLEGPIPAHLLGNMWAQTWSNIYDLVVPFPSAPSMDTTEAMLKQGWTPRRMFKEADDFFTSLGLLPVPPEFWNKSMLEKPTDGREVVCHASAWDFYNGKDFRIKQCTTVNLEDLVVAHHEMGHIQYFMQYKDLPVALREGANPGFHEAIGDVLALSVSTPKHLHSLNLLSSEGGSDEHDINFLMKMALDKIAFIPFSYLVDQWRWRVFDGSITKENYNQEWWSLRLKYQGLCPPVPRTQGDFDPGAKFHIPSSVPYIRYFVSFIIQFQFHEALCQAAGHTGPLHKCDIYQSKEAGQRLATAMKLGFSRPWPEAMQLITGQPNMSASAMLSYFKPLLDWLRTENELHGEKLGWPQYNWTPNSAR
notes: Serum was prepared from fresh whole blood by standard techniques; from tissue; host or cells: serum (unfractionated)
By Km is commonly meant the substrate concentration at which the rate is half of its maximum. Turning to B1, the Km is 6.25 mM.
